In article PMC11277095 (International Journal of Molecular Sciences, 2024):

Target: the molecule itself
Test: native gel or EMSA; 10 µg purified protein mixed with hypotonic buffer, hyperosmotic resealing solution (10% v/v Pigpa) or loading buffer; Tris/glycine buffer pH 8.3, 100 V; Coomassie staining

B1: Human ornithine aminotransferase variant R217A (OAT-R217A) (enzyme, UniProt P04181 26-439, looked up)
chain: TSVATKKTVQGPPTSDDIFEREYKYGAHNYHPLPVALERGKGIYLWDVEGRKYFDFLSSYSAVNQGHCHPKIVNALKSQVDKLTLTSRAFYNNVLGEYEEYITKLFNYHKVLPMNTGVEAGETACKLARKWGYTVKGIQKYKAKIVFAAGNFWGRTLSAISSSTDPTSYDGFGPFMPGFDIIPYNDLPALEAALQDPNVAAFMVEPIQGEAGVVVPDPGYLMGVRELCTRHQVLFIADEIQTGLARTGRWLAVDYENVRPDIVLLGKALSGGLYPVSAVLCDDDIMLTIKPGEHGSTYGGNPLGCRVAIAALEVLEEENLAENADKLGIILRNELMKLPSDVVTAVRGKGLLNAIVIKETKDWDAWKVCLRLRDNGLLAKPTHGDIIRFAPPLVIKEDELRESIEIINKTILSF
modifications: PLP bound to Lys292 through a Schiff base linkage
notes: Human ornithine aminotransferase, mitochondrial; construct printed as 'pET43a Δ26-439 OAT-R217A', the mature form with Arg217 changed to alanine; also called dimeric hOAT; source: E. coli BL21, purified (DEAE HiPrep FF, Sephacryl S-100)
Does B1 bind?
Result: binds
